Measured values as given in patent publication US20060199194A1.

Tests used:
[1] = biological target: TAU-412 target protein (human) (UniProt P10636); experiment: sandwich Immuno Q-Amp assay: capture MN1010, TAU-412 10 ng per well, biotin MN1000 reporter, avidin-biotin-MNVplus template, Q-beta replicase, SYBR Green fluorescence; Startingblock blocking
[2] = biological target: TAU-412 target protein (human) (UniProt P10636); experiment: sandwich Immuno Q-Amp assay: capture MN1010, TAU-412 10 ng per well, biotin MN1000 reporter, avidin-biotin-MNVplus template, Q-beta replicase, SYBR Green fluorescence; Superblock blocking

Sequence of UniProt P10636 (P10636 other isoform, or with tags, fused parts or gaps): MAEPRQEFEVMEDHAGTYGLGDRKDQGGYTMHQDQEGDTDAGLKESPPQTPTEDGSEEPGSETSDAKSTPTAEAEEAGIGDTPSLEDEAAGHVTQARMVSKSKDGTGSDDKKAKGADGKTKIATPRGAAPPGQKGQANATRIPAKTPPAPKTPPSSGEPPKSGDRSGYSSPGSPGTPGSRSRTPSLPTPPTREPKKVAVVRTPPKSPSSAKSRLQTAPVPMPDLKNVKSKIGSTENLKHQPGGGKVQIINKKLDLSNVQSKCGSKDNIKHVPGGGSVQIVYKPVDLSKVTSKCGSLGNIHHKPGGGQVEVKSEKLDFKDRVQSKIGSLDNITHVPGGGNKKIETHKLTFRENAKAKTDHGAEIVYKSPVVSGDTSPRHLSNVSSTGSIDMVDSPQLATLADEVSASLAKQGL

- RT (response time, starting block blocking) [1]: 13.5 min
- RT (response time, Superblock blocking) [2]: 15 min
Substance: anti-TAU, biotinylated antibody MN-1000 (Pierce, #MN1000B)
